Data as given in US20090221027A1 (BASF AG, priority 2005, published 2009).
Where two headings read alike, the source gives them in different places.

Experiments:
[1] = biological target: C. glutamicum MetY enzyme (Corynebacterium glutamicum, UniProt Q79VI4); experiment: biochemical
Description: Cells were harvested and cell lysates from pellets were obtained using the Ribolyzer protocol and machine (Hybaid, UK). Cell extracts were centrifuged to obtain a soluble supernatant fraction of cytosolic protein. The method to determine the O-acetyl-homoserine sulfhydrylase activity in cell extracts was performed essentially as described in Yamagata, Methods in Enzymology, 1987, Vol. 143 pp 479-480. Cell extracts were added to a buffer of 100 mM KH2PO4 (pH 7.2) containing 5 mM O-acetyl-homoserine and 200 μM pyridoxal phosphate. […] The reaction was initiated by addition of Na-sulphide solution to a final concentration of 4 mM. After a 15 minute incubation at 30° C., the reaction was terminated and acidified by addition of 1/10 volume of 30% trichloroacetic acid. After centrifugation (5 minutes at 13,000 rpm) to remove precipitated protein, incubation at reduced atmospheric pressure in a Speed-Vac evaporator was performed to deplete residual H2S. The sulphide depleted solution was reacted with cyanide and nitroprusside as described in Yamagata supra. Absorption at 520 nm was determined and background corrected.

[2] = O-acetyl-homoserine sulfhydrylase activity in crude cell extracts; assay type: biochemical
[3] = Cystathionine γ-synthase activity in crude cell extracts; assay type: biochemical
[4] = Inhibition of the enzyme by methionine (Table 1); assay type: biochemical
[5] = reported specific activity; Bsu MetI from T7 promoter in E. coli; cited from earlier work
[6] = reported specific activity; Bsu MetI from T7 promoter in E. coli; cited from earlier work; remark: listed apart in the source
[7] = H.-S. Lee, personal communication; cited from earlier work
[8] = in C. glutamicum from P15, crude extracts
[9] = in E. coli from P15, crude extracts

Molecule	IC50 [1] [mM]	O-Ac-Hse sulfhydrylase activity [2, 8] [nmol/min]	O-Ac-Hse sulfhydrylase activity [2, 9] [nmol/min]	Cystathionine γ-synthase activity [3, 8] [nmol/min]	Cystathionine γ-synthase activity [3, 9] [nmol/min]	Inhibition by methionine [4, 8]	Inhibition by methionine [4, 9]	O-Ac-Hse sulfhydrylase activity [5] [µmol/min/mg]	Cystathionine γ-synthase activity [6] [µmol/min/mg]	Inhibition by methionine [7]
CSCC[C@H](N)C(=O)O [methionine, L-methionine]	~5									
Bsu MetI: Bacillus subtilis O-acetyl-homoserine sulfhydrylase with cystathionine-gamma-synthase activity, SEQ ID NO:2 (protein) MSQHVETKLAQIGNRSDEVTGTVSAPIYLSTAYRHRGIGESTGFDYVRTKNPTRQLVEDAIANLENGARGLAFSSGMAAIQTIMALFKSGDELIVSSDLYGGTYRLFENEWKKYGLTFHYDDFSDEDCLRSKITPNTKAVFVETPTNPLMQEADIEHIARITKEHGLLLIVDNTFYTPVLQRPLELGADIVIHSATKYLGGHNDLLAGLVVVKDERLGEEMFQHQNAIGAVLPPFDSWLLMRGMKTLSLRMRQHQANAQELAAFLEEQEEISDVLYPGKGGMLSFRLQKEEWVNPFLKALKTICFAESLGGVESFITYPATQTHMDIPEEIRIANGVCNRLLRFSVGIEHAEDLKEDLKQALCQVKEGAVSFE		6.3	199	30.2	1900	No	No	7.0	1.5	
Cg1 MetY: C. glutamicum O-acetylhomoserine sulfhydrylase (protein, UniProt Q79VI4 1-437, looked up) O-acetyl-L-homoserine …: MPKYDNSNADQWGFETRSIHAGQSVDAQTSARNLPIYQSTAFVFDSAEHAKQRFALEDLGPVYSRLTNPTVEALENRIASLEGGVHAVAFSSGQAATTNAILNLAGAGDHIVTSPRLYGGTETLFLITLNRLGIDVSFVENPDDPESWQAAVQPNTKAFFGETFANPQADVLDIPAVAEVAHRNSVPLIIDNTIATAALVRPLELGADVVVASLTKFYTGNGSGLGGVLIDGGKFDWTVEKDGKPVFPYFVTPDAAYHGLKYADLGAPAFGLKVRVGLLRDTGSTLSAFNAWAAVQGIDTLSLRLERHNENAIKVAEFLNNHEKVEKVNFAGLKDSPWYATKEKLGLKYTGSVLTFEIKGGKDEAWAFIDALKLHSNLANIGDVRSLVVHPATTTHSQSDEAGLARAGVTQSTVRLSVGIETIDDIIADLEGGFAAI								6.0		Yes
